These are literature values, as cited in article PMC5681435, “Differential Regulation of G1 CDK Complexes by the Hsp90-Cdc37 Chaperone System” (Cell Reports, 2017).

In general, Kd refers to the free concentration of one partner at which half of the binding sites on the other are occupied at equilibrium, for simple one-to-one binding.

In the series the target is B-Raf V600E kinase domain (Homo sapiens) (UniProt P15056). Description: ITC. As to conditions: cited from earlier work.
B-Raf V600E kinase domain (Homo sapiens), sequence (P15056 457-717 V600E): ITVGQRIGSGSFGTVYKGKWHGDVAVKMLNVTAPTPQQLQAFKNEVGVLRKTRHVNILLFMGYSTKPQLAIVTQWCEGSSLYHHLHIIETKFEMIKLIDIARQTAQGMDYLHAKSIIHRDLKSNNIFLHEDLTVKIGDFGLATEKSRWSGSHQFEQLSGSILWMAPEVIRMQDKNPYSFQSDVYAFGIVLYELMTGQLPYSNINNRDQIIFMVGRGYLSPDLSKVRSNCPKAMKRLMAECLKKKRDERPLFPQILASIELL

Cdc37, sequence (Q16543 2-378): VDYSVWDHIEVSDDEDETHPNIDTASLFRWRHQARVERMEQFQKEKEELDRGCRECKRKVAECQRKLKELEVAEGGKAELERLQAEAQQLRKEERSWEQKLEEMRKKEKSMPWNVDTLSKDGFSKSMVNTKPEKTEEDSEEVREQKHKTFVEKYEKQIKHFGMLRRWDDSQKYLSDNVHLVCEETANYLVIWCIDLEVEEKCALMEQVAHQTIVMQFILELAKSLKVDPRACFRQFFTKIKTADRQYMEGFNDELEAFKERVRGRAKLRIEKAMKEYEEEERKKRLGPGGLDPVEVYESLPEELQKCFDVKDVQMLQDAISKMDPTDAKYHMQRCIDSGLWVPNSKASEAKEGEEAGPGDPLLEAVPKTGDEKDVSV

Turning to Cdc37 (from UniProt Q16543), the Kd is 200 nM.
